Measured values reported in the supplement of paper PMC10567573.
± gives the standard deviation.

Assay: protein stability index of a GFP-peptide fusion (GPS, HEK-293T) (PSI 1-6); higher = more stable
[1] = treatment: DMSO, c terminus: a fixed tail appended
[2] = treatment: MLN4924 1 uM, 8 h, c terminus: a fixed tail appended
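Further: 24-mer peptide tiles fused after GFP, lentivirally expressed, FACS-sorted into six equal bins by GFP/DsRed ratio, decoded by Illumina sequencing, PSI is the read-weighted mean bin number.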

Sequence	protein stability index [1]	protein stability index [2]	protein stability index (treatment: DMSO, c terminus: native)	protein stability index (treatment: MLN4924 1 uM, 8 h, c terminus: native)
ELACPAERSGHVAVSDGRHMFVWG [KLHDC2]	2.84 ± 0.15	2.92 ± 0.2	–	–
GDKSESPDEANVGKHPKDKTEDEN [TOR1AIP2]	5.55 ± 0.2	5.44 ± 0.46	–	–
ILKRRYYRQHCTLELGSYIKDLSV [CTDNEP1]	2.46 ± 0.56	2.25 ± 0.66	–	–
VHPFVNYNSSRFGEGVERELFVRE [MYORG]	3.09 ± 0.18	3 ± 0.37	–	–
PLHHQTQRFRLDNLLNMAYGVKSP [ELAVL3]	2.5 ± 0.34	2.63 ± 0.27	–	–
LLFKLVAPVTFRHHRYDDLVRTLY [CPN1]	2.65 ± 0.63	2.83 ± 0.56	–	–
APPSTRTSHSLPESSVPSTVGCSS [PLEKHN1]	4.94 ± 0.45	5.23 ± 0.18	–	–
PENGEIKPASKPAGSSHTPSSQSS [ELOA2]	5.43 ± 0.25	5.62 ± 0.067	–	–
PMPLAPTRSHLWEAAQVVPDGLGL [TRIB3]	3.48 ± 0.32	3.34 ± 0.23	–	–
SVNTHDYAKVKEFIVDILQFLDIG [MATN2]	2.23 ± 0.35	2.05 ± 0.32	–	–
TGEKPHTCSECGKGFIQKGNLNIH [ZNF649]	3.14 ± 0.25	3.54 ± 0.16	–	–
TASLLLCPGGLDHKLNLRGKAWG [TIAF1]	–	–	2.98 ± 0.22	2.59 ± 0.67
PRELASMSLVLHGNNLLVFGGTGI [KLHDC10]	2.46 ± 0.71	2.45 ± 0.59	–	–
TSTSSSITSSIPDTERLDDFHLSI [DVL3]	3.84 ± 0.27	3.96 ± 0.23	–	–
VFMEFGPPNQQMSPSPMSHGHYSM [DLX1]	2.21 ± 0.1	2.24 ± 0.23	–	–
PIFQDSQDTEVFSWSDNERSSSRI [FAM104B]	4.34 ± 0.55	4.41 ± 0.26	–	–
GYEKRNLARVPKLDLKRQYDRVAQ [CHGB]	3.37 ± 0.55	3.11 ± 0.29	–	–

Sequence	protein stability index [1]	protein stability index [2]	protein stability index (treatment: DMSO, c terminus: native)	protein stability index (treatment: MLN4924 1 uM, 8 h, c terminus: native)
LRELCRLWLRPETHTKEQILELVV [ZNF24]	2.44 ± 0.21	2.11 ± 0.34	–	–
LGVAVAVLGGFLYAVGGSDGTSPL [KLHL20]	2.86 ± 0.64	2.85 ± 0.51	–	–
WFQNKRSKFKKLMKQGGAALEGSA [DLX1]	2.62 ± 0.4	3.01 ± 0.36	–	–
RADFVLAANSYDLAIKAITSSAKV [FKBP8]	2.72 ± 0.18	2.84 ± 0.3	–	–
PEKKSDQPMCEEHEEERINIYCLN [TRIM55]	4.79 ± 0.12	4.77 ± 0.35	–	–
MTLAANHELMLRFKDEYKSENIKL [CCDC89]	3.44 ± 0.17	3.72 ± 0.25	–	–
QQQHIECVVCGDKSSGKHYGQFTC [NR2F2]	3.06 ± 0.24	3.12 ± 0.48	–	–
FPKINHGILYDEEKYKPFSQVPTG [CFHR2]	2.4 ± 0.28	3.36 ± 0.34	–	–
PRVRELLLDALSPEQLVLTLLEAE [ESR2]	2.22 ± 0.22	2.22 ± 0.26	–	–
WKVLTWLRYTLWIPLYPLGCLAEA [HACD3]	2.78 ± 0.74	2.55 ± 0.54	–	–
SSSSSSQAPGQPPGNQAEHGAVTV [ZBTB22]	5.12 ± 0.15	5.08 ± 0.24	–	–
LKELQAIAERLGCTLPQLAIAWCL [KCNAB2]	2.29 ± 0.74	2.27 ± 0.25	–	–
PLGVDESLFSYGLRESIASYLSLT [SLA]	2.03 ± 0.19	2.3 ± 0.13	–	–
YIWEKSIGNLVKILHGTRGELLLD [RBBP5]	2.65 ± 0.52	3.09 ± 0.29	–	–
SYSTQASAAAATAELLKKQEELNR [SCAMP3]	4.99 ± 0.19	5.03 ± 0.11	–	–
ACGIVSGKYDSGIPPYSRASLKGY [KCNAB2]	2.35 ± 0.21	2.2 ± 0.12	–	–
